Target: SARS-CoV papain-like protease (PLpro), trypsin-trimmed product of P-PLpro(C2)-His6 (SARS-CoV)

ISG15-AMC (full-length) (from UniProt P05161 1-157)
kcat/KM of hydrolysis of ISG15-AMC by PLpro (fluorescence, pH 7.8, 25 °C): 602000 M⁻¹ s⁻¹
